Values of other authors, collected in article PMC6969543.

Biological target: Glu325 (UniProt position 325, TLHMFEVPFLL)
Assay: IR

Substance: Lactose permease (LacY), form used in earlier work (quoted values) (Escherichia coli)
- pKa: 10.5 ± 0.1
